From patent US20170355757A1 (Regeneron, published 2017)

T1: monkey C5-mmh (monkey, UniProt P01031 19-1676 (human entry), limits assumed)
T1 construct: Recombinant monkey C5 with a C-terminal myc-myc-hexahistidine tag
T1 chain: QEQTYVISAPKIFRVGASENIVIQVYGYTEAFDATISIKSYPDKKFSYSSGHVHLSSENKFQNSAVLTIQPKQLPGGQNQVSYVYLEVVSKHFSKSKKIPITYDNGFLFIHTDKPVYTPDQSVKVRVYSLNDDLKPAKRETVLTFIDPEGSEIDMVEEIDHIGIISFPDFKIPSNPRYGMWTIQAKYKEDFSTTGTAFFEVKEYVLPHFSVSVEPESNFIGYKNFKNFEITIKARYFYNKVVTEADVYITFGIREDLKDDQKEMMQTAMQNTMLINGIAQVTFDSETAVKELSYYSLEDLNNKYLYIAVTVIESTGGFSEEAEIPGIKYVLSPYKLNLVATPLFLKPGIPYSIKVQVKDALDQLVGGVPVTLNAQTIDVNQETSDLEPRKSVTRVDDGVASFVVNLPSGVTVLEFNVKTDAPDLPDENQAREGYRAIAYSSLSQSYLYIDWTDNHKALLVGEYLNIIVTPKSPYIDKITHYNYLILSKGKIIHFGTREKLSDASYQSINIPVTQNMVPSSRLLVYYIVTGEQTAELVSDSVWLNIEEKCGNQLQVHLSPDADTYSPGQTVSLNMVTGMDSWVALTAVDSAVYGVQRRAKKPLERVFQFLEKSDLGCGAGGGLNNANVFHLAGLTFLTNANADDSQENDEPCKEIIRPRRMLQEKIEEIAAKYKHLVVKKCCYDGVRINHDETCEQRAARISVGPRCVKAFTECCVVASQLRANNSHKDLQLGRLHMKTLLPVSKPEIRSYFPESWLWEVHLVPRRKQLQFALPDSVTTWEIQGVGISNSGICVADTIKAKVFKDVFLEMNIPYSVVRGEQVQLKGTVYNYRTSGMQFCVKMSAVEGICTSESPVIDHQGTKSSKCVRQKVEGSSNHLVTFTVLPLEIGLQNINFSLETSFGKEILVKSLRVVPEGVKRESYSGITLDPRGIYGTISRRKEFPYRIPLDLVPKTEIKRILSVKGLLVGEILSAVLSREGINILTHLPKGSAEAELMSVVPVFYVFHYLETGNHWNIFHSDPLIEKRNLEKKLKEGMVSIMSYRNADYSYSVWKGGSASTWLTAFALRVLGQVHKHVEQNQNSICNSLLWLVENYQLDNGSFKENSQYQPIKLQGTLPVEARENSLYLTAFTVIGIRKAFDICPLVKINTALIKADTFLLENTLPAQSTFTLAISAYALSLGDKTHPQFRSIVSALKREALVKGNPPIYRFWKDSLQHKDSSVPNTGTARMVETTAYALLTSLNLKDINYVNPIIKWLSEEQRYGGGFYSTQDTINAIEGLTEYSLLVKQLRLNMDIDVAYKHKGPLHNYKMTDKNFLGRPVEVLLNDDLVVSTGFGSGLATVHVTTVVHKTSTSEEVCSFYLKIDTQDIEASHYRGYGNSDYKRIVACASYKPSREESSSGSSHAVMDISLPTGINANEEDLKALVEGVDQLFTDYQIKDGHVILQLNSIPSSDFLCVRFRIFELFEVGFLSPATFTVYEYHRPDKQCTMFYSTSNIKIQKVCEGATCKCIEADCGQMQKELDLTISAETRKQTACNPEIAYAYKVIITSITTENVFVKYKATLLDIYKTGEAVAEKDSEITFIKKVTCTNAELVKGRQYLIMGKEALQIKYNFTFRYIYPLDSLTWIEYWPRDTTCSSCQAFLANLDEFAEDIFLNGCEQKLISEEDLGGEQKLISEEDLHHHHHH


Tests used:
[1] = target: African green monkey C5 (African green monkey); assay: cell-based or functional assay
[2] = target: Cynomolgus monkey C5 (cynomolgus monkey, UniProt A0A2K5U1T1 19-1676); assay: cell-based or functional assay
[3] = target: T1, monkey C5-mmh; assay: SPR, mAb captured via anti-hFc, 37C
Description: (§1) Equilibrium dissociation constants (KD values) for C5 binding to purified anti-C5 antibodies were determined using a real-time surface plasmon resonance biosensor assay on a Biacore T200 instrument. The Biacore sensor surface was derivatized by amine coupling with a monoclonal mouse anti-human Fc antibody (GE Healthcare, # BR-1008-39) to capture anti-C5 antibodies expressed with human Fc constant regions. Biacore binding studies were conducted in HBST running buffer (0.01M HEPES pH 7.4, 0.15M NaCl, 3 mM EDTA, 0.05% v/v Surfactant P20).
(§2) Human C5 was obtained from a commercial source (EMD). Other C5 reagents were expressed with a C-terminal myc-myc-hexahistidine tag (subsequently referred to as C5-mmh). […] Association of all the C5 reagents to each of the captured monoclonal antibodies was monitored for 3 minutes and their dissociation in HBST running buffer was monitored for 8 minutes. All the binding kinetics experiments were performed at either 25° C. or 37° C. Kinetic association (kₐ) and dissociation (kd) rate constants were determined by fitting the real-time sensorgrams to a 1:1 binding model using Scrubber 2.0c curve fitting software. Binding dissociation equilibrium constants (KD) and dissociative half-lives (t %) were calculated from the kinetic rate constants as: KD (M)=kd/kₐ and t_{1/2} (min)=In2/(60×kd)

[4] = target: T2, human C5 R885H-mmh (human, UniProt P01031 19-1676); assay: SPR, mAb captured via anti-hFc, 37C
T2 construct: also called human C5 variant R885H
Description: as §1, §2

[5] = target: T3, human C5 R885C-mmh (human, UniProt P01031 19-1676); assay: SPR, mAb captured via anti-hFc, 37C
T3 construct: also called human C5 variant R885C
Description: as §1, §2

[6] = target: T2, human C5 R885H-mmh; assay: SPR, mAb captured via anti-hFc, 25C
Description: as §1, §2

[7] = target: T3, human C5 R885C-mmh; assay: SPR, mAb captured via anti-hFc, 25C
Description: as §1, §2

Binder | 100 nM monkey C5-mmh Bound (RU) [3] | Kd [3] | koff [3] | kon [3] | t1/2 [3] | 100 nM Human C5 R885H-mmh Bound (RU) [4] | Kd [4] | koff [4] | kon [4] | t1/2 [4] | 100 nM Human C5 R885C-mmh Bound (RU) [5] | Kd [5] | koff [5] | kon [5] | t1/2 [5] | 100 nM Human C5 R885H-mmh Bound (RU) [6] | Kd [6] | koff [6] | kon [6] | t1/2 [6] | further results
H4H12166P (antibody, V domains shown) VH: QVQLQESGPGLVKPSETLSLTCTVSGDSVSSSYWTWIRQPPGKGLEWIGYIYYSGSSNYNPSLKSRATISVDTSKNQFSLKLSSVTAADTAVYYCAREGNVDTTMIFDYWGQGTLVTVSS VL: AIQMTQSPSSLSASVGDRVTITCRASQGIRNDLGWYQQKPGKAPKLLIYAASSLQSGVPSRFAGRGSGTDFTLTISSLQPEDFATYYCLQDFNYPWTFGQGTKVEIK |  |  |  |  |  |  |  |  |  |  |  |  |  |  |  |  |  |  |  |  | AGM AP % Max Inhibition, hemolysis assay, 5% serum [1]: 44.2%; AGM CP % Max Inhibition, hemolysis assay, 5% serum [1]: 81%; AGM Serum AP IC50, hemolysis assay, 5% serum [1]: 233 nM; Cyno AP % Max Inhibition, hemolysis assay, 5% serum [2]: 98.6%; Cyno CP % Max Inhibition, hemolysis assay, 5% serum [2]: 94.2%; Cyno Serum AP IC50, hemolysis assay, 5% serum [2]: 8.85 nM; Cyno Serum CP IC50, hemolysis assay, 5% serum [2]: 20.1 nM
H4H12183P2 (antibody, human IgG4, V domains shown, Human IgG4 Fc with S108P hinge mutation (H4H)) VH: QVQLQESGPALVKPSQTLSLTCTVSGGSIIRGSTYWSWVRQFPGKGLEWIGYSYYSGTAYYNPSLESRATISVDTSKNQFSLNLKSVTAADTAVYYCTREIGVAGLFDIWGQGTLVTVSS VL: not shown | 13 RU | 118 nM | 0.00637 s⁻¹ | 54000 M⁻¹ s⁻¹ | 2 min | 36 RU | 7.43 nM | 0.000712 s⁻¹ | 95800 M⁻¹ s⁻¹ | 16 min | 25 RU | 19.5 nM | 0.000997 s⁻¹ | 51200 M⁻¹ s⁻¹ | 12 min | 99 RU | 1.16 nM | 4.37e-05 s⁻¹ | 37700 M⁻¹ s⁻¹ | 264 min | 100 nM Human C5 R885C-mmh Bound (RU) [7]: 80 RU; Kd [7]: 0.737 nM; koff [7]: 2.2e-05 s⁻¹; kon [7]: 29900 M⁻¹ s⁻¹; t1/2 [7]: 525 min

The next lines start with results.

100 nM monkey C5-mmh Bound (RU) [3] | Kd [3] | koff [3] | kon [3] | t1/2 [3] | 100 nM Human C5 R885H-mmh Bound (RU) [4] | Kd [4] | koff [4] | kon [4] | t1/2 [4] | 100 nM Human C5 R885C-mmh Bound (RU) [5] | Kd [5] | koff [5] | kon [5] | t1/2 [5] | 100 nM Human C5 R885H-mmh Bound (RU) [6] | Kd [6] | koff [6] | kon [6] | t1/2 [6] | Binder | further results
47 RU | 9.6 nM | 0.00129 s⁻¹ | 135000 M⁻¹ s⁻¹ | 9 min | 69 RU | 3.73 nM | 0.000958 s⁻¹ | 257000 M⁻¹ s⁻¹ | 12 min | 55 RU | 7.32 nM | 0.00103 s⁻¹ | 141000 M⁻¹ s⁻¹ | 11 min | 65 RU | 1.22 nM | 0.000217 s⁻¹ | 178000 M⁻¹ s⁻¹ | 53 min | H4H12176P2 (antibody, human IgG4, V domains shown, Human IgG4 Fc with S108P hinge mutation (H4H)) VH: EVQLVESGGGLVQPGGSLRLSCAASGFHSNRYWMDWVRQAPGKGLEWVANIKQDGSEENYVDSVKGRFTISRDNAKNSLYLQMNSLRAEDTAVYYCARDRSTSWVPYWFFDLWGRGTLVTVSS VL: not shown | 100 nM Human C5 R885C-mmh Bound (RU) [7]: 63 RU; Kd [7]: 2.03 nM; koff [7]: 0.000218 s⁻¹; kon [7]: 107000 M⁻¹ s⁻¹; t1/2 [7]: 53 min
64 RU | 14.3 nM | 0.00361 s⁻¹ | 251000 M⁻¹ s⁻¹ | 3 min | 79 RU | 1.72 nM | 0.000739 s⁻¹ | 429000 M⁻¹ s⁻¹ | 16 min | 75 RU | 2.24 nM | 0.000737 s⁻¹ | 329000 M⁻¹ s⁻¹ | 16 min | 173 RU | 0.147 nM | 7.09e-05 s⁻¹ | 484000 M⁻¹ s⁻¹ | 163 min | H4H12169P (antibody, human IgG4, V domains shown, Human IgG4 Fc with S108P hinge mutation (H4H)) VH: EVQLVESGGGLAQPGGSLRLSCAASGFTFRSYAMSWVRQAPGKGPEWVSGIGGNGVTTYYADSVKGRFTISRDNSKNTLFLQMNSLRAEDTAVYYCVQGGLGGYFTGYWGQGTLVTVSS VL: DIQMTQSPSSLSASVGDRVTITCRASQSISTYLNWYQQNPGKAPKLLIFDASSLQSGVPSRFSGSGSGTDFTLTIRGLQPEDFATYYCQQSYSAPLTFGGGTKVEIK | 100 nM Human C5 R885C-mmh Bound (RU) [7]: 168 RU; Kd [7]: 0.251 nM; koff [7]: 6.99e-05 s⁻¹; kon [7]: 278000 M⁻¹ s⁻¹; t1/2 [7]: 165 min
